Experiment: yeast display, Sf9 membrane polyspecificity reagent, FACS + sequencing; frameworks hold sequencing errors
In short: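 Galactose-induced (36–48 hours) yeast carrying a synthetic nanobody display library were exposed to 10% biotinylated, detergent-solubilized Sf9 membrane reagent at 4 °C for 1 hour. FACS followed streptavidin microbead enrichment, using low and high (top ~1%) gates for expression (anti-HA) and reagent binding (streptavidin). Colony PCR, MiSeq 2 × 250 sequencing and CDR-length filtering followed. Labels for polyreactivity reflect the gate of origin.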
In the case of “QVQLGESGGCLGQAGGSLRLSCAASGYTFPYNVMGWYRQAPGKERELDAAITSSGGSTYYADSVKGRFTISRDNAKNTVYLQMNRLKPEDTAVYYCNAYPSSSLFDYWGQGTQVTVSS”, the “polyreactivity (PSR sort gate)” value is reported as “low polyreactivity”.
With “QVQLVESGGGLVQAGGSLRLSCAASGLIFRPYAMGWYRQAPGQERELVAAITSGGSTDYADSVKGRFTISRDNAKNTVYLQMNSLKPEDTAVYYCNADIYPPDGYPWQGDYDYWGQGTQVTVSS” the “polyreactivity (PSR sort gate)” value was “low polyreactivity”.
In the case of “QVQLVESGGGLVQAGGSLRLSCAASGRILRHNAKGWYRQAPGKERELVAAITNGGSTYYADSVKGRFTISRDNAKNTVYLQMNCLKPEDTAVYYCAARTRLAQYSRGRYRYDYWGQGTQVTLSS”, the “polyreactivity (PSR sort gate)” value is reported as “high polyreactivity”.
With “QVQLEESGGGLVQAGRSLRFSCAASGRIFPWYTMGWYRPAPGKERELVAVISSGGRTHYADSVKGRFTISRDNAKNTVYLQMNSLKPEDTAVYYCAGESRYQRYDYWRQGTQVTVSS” the “polyreactivity (PSR sort gate)” value was “high polyreactivity”.
In the case of “QVQLVESGGGLVQAGGSLRLSCAASGSIFKNYAMGWYRQAPGKERELVATISSGDSTYYADSVKGRFTISRDNAKNTVYLQMNSLKPEDTAVYYCNTTEHNYVSSFEYGYWGQGTHVTVSS”, the “polyreactivity (PSR sort gate)” value is reported as “low polyreactivity”.
With “QVQLVESGGGLVQAGGSLRLSCAASGSTFQTYAMGWYRQAPGKERELVASINWRSGSTYYADSVKGRFTISRDNAKNTVYLQMNSLKPEDTAVYSCAAELDFSPGYYYLYDYWGQGTQVTVSS” the “polyreactivity (PSR sort gate)” value was “low polyreactivity”.
With “QVQLVESGGGLVQAGGSLRLSCAASGSIFRYNAMGWYRQAPGKERELVAVITSTGSTSYADSVKGRFTISRDNAKNTVYLQMNSLKPEDTAVYYCAATRERHYSYQYLVPYYYWGQGTQVTVSS” the “polyreactivity (PSR sort gate)” value was “high polyreactivity”.
With “QVQLVESGGGLVQAGGILRLSCAASGSTFGDYTMGWYRHAPGKERELVAAITLTGGSTFYSDSVKGRFTISRDNAKNTVYLQMNSLKPVDTAVYYCNTDVIRWVGGTWHRYYYWGQGTQVTVSS” the “polyreactivity (PSR sort gate)” value was “low polyreactivity”.
In the case of “QVQLVETGGGLVQAGGSLRLSCAASGSIFEYNGMGWYRQAPGKERELVAAITTTGTTDYADSVKGRFTISRDNAKNTVYLLMNSLKPEDTAVYYCAADYTYYYKGEYDYWGQGTQVTVSS”, the “polyreactivity (PSR sort gate)” value is reported as “low polyreactivity”.
For “QVQLVESGGGLVQAGGSLRLSCAASGRIVYYNVMGWYRQAPGKEREFVAAISTRTGSTYYADSVKGRFTISRDNAKNSVYLQMNRLKPEDTAVYYCAAPYRAYSYDYWGQGTQVTVSS”, the “polyreactivity (PSR sort gate)” value was “high polyreactivity”.
With “QDHLVESGGGLVQAGGSLRLICAASGSTFTQYTMGWYRQAPGKERELVAAISSGGGRTYYADSVKGRFTISRDNAKNTVYLQMYSLKPEDTAFYYCAADYQNSRRGRGNSQYYYWGQGTQVTVSS” the “polyreactivity (PSR sort gate)” value was “low polyreactivity”.
In the case of “QVQLVESGGGLVQAGGSLSLSCAASGRTFLIYAMGWYRQAPGKERELVAAITSGDNTYYADSVKGRFTISRDNAKNTVYLQMNSLKPEDTAVYYCAAGGYVRNYYTYEHWGQGTQVTVSS”, the “polyreactivity (PSR sort gate)” value is reported as “low polyreactivity”.
For “QVQLVESGGGLVQAGGSLRLSCAASGSIFYGYDMGWYRQAPGKERELVAAISRSGGSTYYADSVKGRFTISRDNAKNTVYLQMNSLKPEDTAVSYCNAYPVTFVYYVGDGYWGQGTQVTVSS”, the “polyreactivity (PSR sort gate)” value was “high polyreactivity”.
In the case of “QVQLVESGGGLVQAGGSLRLSCAASGSIRSYAMGWYRQSPGKERELVAAITRSGGSTYYADSVKGRFTISRDNAKNSVYLQMNSLKPEDTAVYYCAAEVRGKSRSTRVSYRYDYWGQGTQVTVSS”, the “polyreactivity (PSR sort gate)” value is reported as “high polyreactivity”.
With “QVQLVESGGGLVQAGGSLRLSCAASGLTFQSYAMGWYRQAPGKERELVAAISRRSGSTYYADSVKGRFTISRDNAKNTVYLQMNSLKPEDTAVYYCTTRRGERGYWGQGTQVTVSS” the “polyreactivity (PSR sort gate)” value was “high polyreactivity”.
In the case of “QVQHVESGGGLVQAGGSLRLSCASSGSTSGIHAMGWYRQAPGKDRELVAAIRLSGGRTYYADSVKGRFTISRDNAKNTVYLQMNSLKPEDTAVYFCNALYRQARIRATYDYWGQGTQVSVSS”, the “polyreactivity (PSR sort gate)” value is reported as “high polyreactivity”.
For “QVQLVESGGGLVQAGGSLRLSCAASGFIFWQYAMGWYRQAPGKERELVAAISGRGGRTYYADSVKGRFTISRDNAKNTVYLQMNSLKPEDTAVYYCNKVGPLVGGVKYYYWGQGTQVTVSS”, the “polyreactivity (PSR sort gate)” value was “high polyreactivity”.
In the case of “QVQLVESGGGLVQAGASLRLSCAASGRTFPGYAMGWSRQAPGKERELVAAITYRGGSTYYADSVKGRFTISRDNAKNTVYLQMNSLKPEDTAVYYCNARHSRSRFYYWGQGTQVTVSS”, the “polyreactivity (PSR sort gate)” value is reported as “high polyreactivity”.
For “QVQLVESGGGLVQAGGSLRLSCAASGIIFAGNAMGWYRQAPGKEREFVAAISYRGGTTYYADSVKGRFTISRDNAKNTVYLQMNSLKPEDTAVYYCAADPRSKGFYYGYDYWGQGTQGTVSS”, the “polyreactivity (PSR sort gate)” value was “high polyreactivity”.
For “QVQLVESGGGLVQAGGSLRLSCAASGRTFWFYAMGWYRQAPGKERELVASITSGGGTNYADSVKGRFTISRDNAKNTVYLQMNRLKPEDTAVYYCAAARKLDATTYYKFDYWGQVTQVTVSS”, the “polyreactivity (PSR sort gate)” value was “high polyreactivity”.
In the case of “QVQLVESGGGLVQAGGSLRLSCAASGFIFRYYAMGWYRQAPGKERELVAAISWRGGSTYYADSVKGRFTISRDNAKNTVYLQMNSLKPEDTAVYYCAAERYVDYGYWGQGTQVTVSS”, the “polyreactivity (PSR sort gate)” value is reported as “high polyreactivity”.
For “QVQLVESGGGLVQAGGSLRLSCAASGRTIPNVMGWYRQAPGKERELVAAISSSVGSTSYADSVKGRFTISRDNAKNTVYLQMNSLKPEDTAVYYCAARYYYRDWVGIISTYYYWGQGTQVTVSS”, the “polyreactivity (PSR sort gate)” value was “high polyreactivity”.
In the case of “QVQLVESGGGLVQAGGSLRLSCAASGSTFLYNAIGWYRQAPGKERELVAAISSGGRTKYADSVKGRFTISRDTAKNTVYLQMNSLKPEDTAVYYCAAESYTGKYCWVWKWYDYWGQGTQVTVSS”, the “polyreactivity (PSR sort gate)” value is reported as “low polyreactivity”.
For “QVQLVESGGGLVQAGGSLRLSCAASGSTFYYYTMGWYRQAPGKERELVAISWDGDSTYSADSVKGRFTISRDNAKNTVYLQMNSLKPEDTAVYYCAAADYYLPDDVSDYVDANFDYWGQGTQVTVSS”, the “polyreactivity (PSR sort gate)” value was “low polyreactivity”.
With “QVQLVESGGGLVQAGGSLRLSCAASGFILDRYAMGWYRQAPGKERELVASITSGGSTNYADSVKGRFTISRDNAKNTVYLQMNSLIPEDTAVYYCAAYPWRYWNHEYNYWGQGTQVTVSS” the “polyreactivity (PSR sort gate)” value was “high polyreactivity”.
In the case of “QVQRVESGGGLVQAGGSLRLSCAASGLTFPSYAMGWYRQAPGKERELVATISNGSSTYYADSVKGRFTISRDNAKNTVYLQLNSLKPEDTAVYYCAKDYYYSRNPLYGHDYWGQGSQVTVSS”, the “polyreactivity (PSR sort gate)” value is reported as “low polyreactivity”.
For “QVQLVESGGGLVQAGGSLRLSCAASGFIFGNNDMGWNRQAPGKERELVAGITWSGSSTYYADSVKGRFTISRDNAKNTVYLQMNSLKPEDTAVYYCARDGNDGYEYWGQGTQVTVSS”, the “polyreactivity (PSR sort gate)” value was “high polyreactivity”.
For “QVQLVESGGGLVQAGGSLRLSCAASGSTFYGYAMGWYRPAPGKERELVAAITRSGGSTYYADSVKGRFTISRDNAKNTVYLQMNSLKPEDTEVYYCNKYGYKGGVGYDYWGQGTQVTVSS”, the “polyreactivity (PSR sort gate)” value was “high polyreactivity”.
With “QVQLLESGGGLLQAGGSLRLSCAASGRIFKFNAMGWYRQAPGKERELVAAISKRGGSTYYADSVKGRFTISRDNAKNTVYLQMNSLNPEDTAVYYCAAPIYNGYASWQVYYWGQGTQVTVSS” the “polyreactivity (PSR sort gate)” value was “high polyreactivity”.
With “QVQLVESGGGLVQAGGSLRLSCAASGFTFAAYDKGWSRQAPGKELELVAAITKSGASTYYADSVKGRFTISRDIAKNTFYLQMNSLKPEDTAVYYCAAKNTLYSYYYWGQGTQVTVSS” the “polyreactivity (PSR sort gate)” value was “high polyreactivity”.

From the nanobody polyreactivity screen of Harvey et al. (2022)
